# Laboratory results taken from US20230129812A1 (ACCELERON PHARMA, published 2023).
# B1: Soluble ActRIIB-Fc +15tail (Fc fusion, UniProt Q13705 19-134, looked up)
# chain: SGRGEAETRECIYYNANWELERTNQSGLERCEGEQDKRLHCYASWANSSGTIELVKKGCWLDDFNCYDRQECVATEENPQVYFCCCEGNFCNERFTHLPEAGGPEVTYEPPPTAPT
# notes: not shown: linker and Fc
# B2: ActRIIB(R64K 20-129)-hFc (Fc fusion)
# chain: GRGEAETRECIYYNANWELERTNQSGLERCEGEQDKRLHCYASWKNSSGTIELVKKGCWLDDFNCYDRQECVATEENPQVYFCCCEGNFCNERFTHLPEAGGPEVTYEPPGGGTHTCPPCPAPELLGGPSVFLFPPKPKDTLMISRTPEVTCVVVDVSHEDPEVKFNWYVDGVEVHNAKTKPREEQYNSTYRVVSVLTVLHQDWLNGKEYKCKVSNKALPVPIEKTISKAKGQPREPQVYTLPPSREEMTKNQVSLTCLVKGFYPSDIAVEWESNGQPENNYKTTPPVLDSDGSFFLYSKLTVDKSRWQQGNVFSCSVMHEALHNHYTQKSLSLSPGK
# B3: ActRIIB(A24N 20-134)-hFc (Fc fusion)
# chain: GRGENETRECIYYNANWELERTNQSGLERCEGEQDKRLHCYASWRNSSGTIELVKKGCWLDDFNCYDRQECVATEENPQVYFCCCEGNFCNERFTHLPEAGGPEVTYEPPPTAPTGGGTHTCPPCPAPELLGGPSVFLFPPKPKDTLMISRTPEVTCVVVDVSHEDPEVKFNWYVDGVEVHNAKTKPREEQYNSTYRVVSVLTVLHQDWLNGKEYKCKVSNKALPVPIEKTISKAKGQPREPQVYTLPPSREEMTKNQVSLTCLVKGFYPSDIAVEWESNGQPENNYKTTPPVLDSDGSFFLYSKLTVDKSRWQQGNVFSCSVMHEALHNHYTQKSLSLSPGK
# B4: ActRIIB(P129S, P130R 20-134)-hFc (Fc fusion)
# chain: GRGEAETRECIYYNANWELERTNQSGLERCEGEQDKRLHCYASWRNSSGTIELVKKGCWLDDFNCYDRQECVATEENPQVYFCCCEGNFCNERFTHLPEAGGPEVTYEPSRTAPTGGGTHTCPPCPAPELLGGPSVFLFPPKPKDTLMISRTPEVTCVVVDVSHEDPEVKFNWYVDGVEVHNAKTKPREEQYNSTYRVVSVLTVLHQDWLNGKEYKCKVSNKALPVPIEKTISKAKGQPREPQVYTLPPSREEMTKNQVSLTCLVKGFYPSDIAVEWESNGQPENNYKTTPPVLDSDGSFFLYSKLTVDKSRWQQGNVFSCSVMHEALHNHYTQKSLSLSPGK
# B5: ActRIIB(L79D 20-134)-hFc (Fc fusion)
# chain: GRGEAETRECIYYNANWELERTNQSGLERCEGEQDKRLHCYASWRNSSGTIELVKKGCWDDDFNCYDRQECVATEENPQVYFCCCEGNFCNERFTHLPEAGGPEVTYEPPPTAPTGGGTHTCPPCPAPELLGGPSVFLFPPKPKDTLMISRTPEVTCVVVDVSHEDPEVKFNWYVDGVEVHNAKTKPREEQYNSTYRVVSVLTVLHQDWLNGKEYKCKVSNKALPVPIEKTISKAKGQPREPQVYTLPPSREEMTKNQVSLTCLVKGFYPSDIAVEWESNGQPENNYKTTPPVLDSDGSFFLYSKLTVDKSRWQQGNVFSCSVMHEALHNHYTQKSLSLSPGK
# B6: ActRIIB(K74A 20-134)-hFc (Fc fusion)
# chain: GRGEAETRECIYYNANWELERTNQSGLERCEGEQDKRLHCYASWRNSSGTIELVAKGCWLDDFNCYDRQECVATEENPQVYFCCCEGNFCNERFTHLPEAGGPEVTYEPPPTAPTGGGTHTCPPCPAPELLGGPSVFLFPPKPKDTLMISRTPEVTCVVVDVSHEDPEVKFNWYVDGVEVHNAKTKPREEQYNSTYRVVSVLTVLHQDWLNGKEYKCKVSNKALPVPIEKTISKAKGQPREPQVYTLPPSREEMTKNQVSLTCLVKGFYPSDIAVEWESNGQPENNYKTTPPVLDSDGSFFLYSKLTVDKSRWQQGNVFSCSVMHEALHNHYTQKSLSLSPGK
# B7: ActRIIB(L79E 20-134)-hFc (Fc fusion)
# chain: GRGEAETRECIYYNANWELERTNQSGLERCEGEQDKRLHCYASWRNSSGTIELVKKGCWEDDFNCYDRQECVATEENPQVYFCCCEGNFCNERFTHLPEAGGPEVTYEPPPTAPTGGGTHTCPPCPAPELLGGPSVFLFPPKPKDTLMISRTPEVTCVVVDVSHEDPEVKFNWYVDGVEVHNAKTKPREEQYNSTYRVVSVLTVLHQDWLNGKEYKCKVSNKALPVPIEKTISKAKGQPREPQVYTLPPSREEMTKNQVSLTCLVKGFYPSDIAVEWESNGQPENNYKTTPPVLDSDGSFFLYSKLTVDKSRWQQGNVFSCSVMHEALHNHYTQKSLSLSPGK
# B8: Soluble ActRIIB-Fc WT (64A) (Fc fusion, UniProt Q13705 19-119, looked up, not shown: a dimerising Fc or GST)
# chain: SGRGEAETRECIYYNANWELERTNQSGLERCEGEQDKRLHCYASWANSSGTIELVKKGCWLDDFNCYDRQECVATEENPQVYFCCCEGNFCNERFTHLPEA
# notes: Whole entry named
# B9: Soluble ActRIIB-Fc D80M (Table 11) (Fc fusion, UniProt Q13705 19-119, looked up, not shown: a dimerising Fc or GST)
# chain: SGRGEAETRECIYYNANWELERTNQSGLERCEGEQDKRLHCYASWANSSGTIELVKKGCWLMDFNCYDRQECVATEENPQVYFCCCEGNFCNERFTHLPEA
# B10: Soluble ActRIIB-Fc D80K (Table 11) (Fc fusion, UniProt Q13705 19-119, looked up, not shown: a dimerising Fc or GST)
# chain: SGRGEAETRECIYYNANWELERTNQSGLERCEGEQDKRLHCYASWANSSGTIELVKKGCWLKDFNCYDRQECVATEENPQVYFCCCEGNFCNERFTHLPEA
# B11: Soluble ActRIIB-Fc K55A (Table 11) (Fc fusion, UniProt Q13705 19-119, looked up, not shown: a dimerising Fc or GST)
# chain: SGRGEAETRECIYYNANWELERTNQSGLERCEGEQDARLHCYASWANSSGTIELVKKGCWLDDFNCYDRQECVATEENPQVYFCCCEGNFCNERFTHLPEA
# B12: Soluble ActRIIB-Fc E37A (Table 11) (Fc fusion, UniProt Q13705 19-119, looked up, not shown: a dimerising Fc or GST)
# chain: SGRGEAETRECIYYNANWALERTNQSGLERCEGEQDKRLHCYASWANSSGTIELVKKGCWLDDFNCYDRQECVATEENPQVYFCCCEGNFCNERFTHLPEA
# B13: Soluble ActRIIB-Fc D80R (Table 11) (Fc fusion, UniProt Q13705 19-119, looked up, not shown: a dimerising Fc or GST)
# chain: SGRGEAETRECIYYNANWELERTNQSGLERCEGEQDKRLHCYASWANSSGTIELVKKGCWLRDFNCYDRQECVATEENPQVYFCCCEGNFCNERFTHLPEA
# B14: Soluble ActRIIB-Fc D80G (Table 11) (Fc fusion, UniProt Q13705 19-119, looked up, not shown: a dimerising Fc or GST)
# chain: SGRGEAETRECIYYNANWELERTNQSGLERCEGEQDKRLHCYASWANSSGTIELVKKGCWLGDFNCYDRQECVATEENPQVYFCCCEGNFCNERFTHLPEA
# B15: Soluble ActRIIB-Fc W78A (Table 11) (Fc fusion, UniProt Q13705 19-119, looked up, not shown: a dimerising Fc or GST)
# chain: SGRGEAETRECIYYNANWELERTNQSGLERCEGEQDKRLHCYASWANSSGTIELVKKGCALDDFNCYDRQECVATEENPQVYFCCCEGNFCNERFTHLPEA
# B16: Soluble ActRIIB-Fc D80A (Table 11) (Fc fusion, UniProt Q13705 19-119, looked up, not shown: a dimerising Fc or GST)
# chain: SGRGEAETRECIYYNANWELERTNQSGLERCEGEQDKRLHCYASWANSSGTIELVKKGCWLADFNCYDRQECVATEENPQVYFCCCEGNFCNERFTHLPEA
# B17: Soluble ActRIIB-Fc K74A (Table 11) (Fc fusion, UniProt Q13705 19-119, looked up, not shown: a dimerising Fc or GST)
# chain: SGRGEAETRECIYYNANWELERTNQSGLERCEGEQDKRLHCYASWANSSGTIELVAKGCWLDDFNCYDRQECVATEENPQVYFCCCEGNFCNERFTHLPEA
# B18: Soluble ActRIIB-Fc D80F (Table 11) (Fc fusion, UniProt Q13705 19-119, looked up, not shown: a dimerising Fc or GST)
# chain: SGRGEAETRECIYYNANWELERTNQSGLERCEGEQDKRLHCYASWANSSGTIELVKKGCWLFDFNCYDRQECVATEENPQVYFCCCEGNFCNERFTHLPEA
# B19: Soluble ActRIIB-Fc R56A (Table 11) (Fc fusion, UniProt Q13705 19-119, looked up, not shown: a dimerising Fc or GST)
# chain: SGRGEAETRECIYYNANWELERTNQSGLERCEGEQDKALHCYASWANSSGTIELVKKGCWLDDFNCYDRQECVATEENPQVYFCCCEGNFCNERFTHLPEA
# B20: Soluble ActRIIB-Fc WT (64R) (Fc fusion, UniProt Q13705 19-119, looked up, not shown: a dimerising Fc or GST)
# chain: SGRGEAETRECIYYNANWELERTNQSGLERCEGEQDKRLHCYASWRNSSGTIELVKKGCWLDDFNCYDRQECVATEENPQVYFCCCEGNFCNERFTHLPEA
# notes: Whole entry named
# B21: Soluble ActRIIB-Fc D80N (Table 11) (Fc fusion, UniProt Q13705 19-119, looked up, not shown: a dimerising Fc or GST)
# chain: SGRGEAETRECIYYNANWELERTNQSGLERCEGEQDKRLHCYASWANSSGTIELVKKGCWLNDFNCYDRQECVATEENPQVYFCCCEGNFCNERFTHLPEA
# Tests used:
# [1] = molecular target: T1, activin A (UniProt P08476 311-426); experiment: SPR (Biacore); ligand coupled, receptor flowed over (as reported in WO2006/012627)
# T1 construct: also called ActA
# T1 sequence (looked up): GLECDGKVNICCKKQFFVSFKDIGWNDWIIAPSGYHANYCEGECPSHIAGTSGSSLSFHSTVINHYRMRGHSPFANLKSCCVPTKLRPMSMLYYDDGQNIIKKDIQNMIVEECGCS
# Excerpt: (§1) Other variants have been generated and tested, as reported in WO2006/012627 (incorporated herein by reference in its entirety). See, e.g., pp. 59-60, using ligands coupled to the device and flowing receptor over the coupled ligands. […] Table 11 showing data with respect to these variants is reproduced below: […]
# [2] = molecular target: T1, activin A; experiment: SPR (Biacore); receptor-Fc captured by anti-hFc antibody, ligand injected
# Procedure: (§2) Binding of certain ActRIIB-Fc proteins and ActRIIB variant Fc fusion polypeptides to ligands was tested in a Biacore™ assay.
# (§3) The ActRIIB-Fc variants or wild-type protein were captured onto the system using an anti-hFc antibody. Ligands were injected and flowed over the captured receptor proteins.
# [3] = molecular target: T2, GDF8 (UniProt O14793 267-375); experiment: as above
# T2 construct: also called myostatin
# T2 sequence (looked up): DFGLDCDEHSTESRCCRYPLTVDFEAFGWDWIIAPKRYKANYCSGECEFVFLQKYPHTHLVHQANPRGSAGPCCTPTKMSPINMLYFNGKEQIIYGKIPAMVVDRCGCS
# Procedure: as §2, §3
# [4] = molecular target: T3, GDF11 (UniProt O95390 299-407); experiment: as above
# T3 construct: also called BMP11
# T3 sequence (looked up): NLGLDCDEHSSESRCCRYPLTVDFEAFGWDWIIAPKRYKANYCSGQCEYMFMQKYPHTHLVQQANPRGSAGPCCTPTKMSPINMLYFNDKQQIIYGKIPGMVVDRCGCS
# Procedure: as §2, §3
# [5] = molecular target: T3, GDF11; experiment: SPR (Biacore); ligand coupled, receptor flowed over (as reported in WO2006/012627)
# Excerpt: as §1
binder,measurement,setting,value
B1,Kd,[1],~26 nM
B2,Kd,[2],0.0841 nM
same,koff,[2],0.000628 s⁻¹
same,kon,[2],7.46e+06 M⁻¹ s⁻¹
same,Kd,[3],2.15 nM
same,koff,[3],0.000209 s⁻¹
B3,Kd,[4],0.0519 nM
same,koff,[4],6.35e-05 s⁻¹
same,Kd,[2],0.104 nM
same,koff,[2],0.000346 s⁻¹
same,kon,[2],3.34e+06 M⁻¹ s⁻¹
B4,Kd,[2],0.0831 nM
same,koff,[2],0.000417 s⁻¹
same,kon,[2],5.02e+06 M⁻¹ s⁻¹
same,Kd,[3],1.67 nM
same,koff,[3],0.00018 s⁻¹
B5,Kd,[4],0.655 nM
same,koff,[4],0.000439 s⁻¹
same,Kd,[3],2.15 nM
same,koff,[3],0.00083 s⁻¹
B6,Kd,[3],0.0718 nM
same,koff,[3],2.03e-05 s⁻¹
B7,Kd,[4],0.716 nM
same,koff,[4],0.000274 s⁻¹
same,Kd,[3],2.41 nM
same,koff,[3],0.0009 s⁻¹
B8,Kd,[5],260 nM
same,Kd,[1],180 nM
B9,binding result,[5],no binding
same,binding result,[1],no binding
B10,binding result,[5],no binding
same,binding result,[1],no binding
B11,binding result,[5],no binding
B12,binding result,[5],no binding
same,binding result,[1],no binding
B13,binding result,[5],no binding
same,binding result,[1],no binding
B14,binding result,[5],no binding
same,binding result,[1],no binding
B15,binding result,[5],no binding
same,binding result,[1],no binding
B16,binding result,[5],no binding
same,binding result,[1],no binding
B17,Kd,[5],5.3 nM
same,Kd,[1],4.35 nM
B18,binding result,[5],no binding
same,binding result,[1],no binding
B19,binding result,[5],no binding
same,binding result,[1],no binding
B20,Kd,[5],86 nM
B21,binding result,[5],no binding
same,binding result,[1],no binding
